pKd: −log10 of the molar value.

Results on two substances are retold here after article PMC12063177.

The target in test [1] is YaxAΔ40B_(weak-50aa) nanopore. The test can be described thus: single-channel nanopore electrical recording; single pore in a DPhPC planar bilayer; SA 20 nM or BT 50 nM added to cis; -75 mV; 150 mM NaCl, 15 mM TrisHCl pH 7.5.
The target of test [2] is YaxAΔ40B_(strepII-70aa) nanopore. Put plainly: single-channel nanopore electrical recording; apparent constants; SA titrated 1-25 nM in cis in 25% (v/v) mixed-protein solution (602 uM BSA, 35 uM HTf, 100 nM BT, 100 nM CRP before dilution); 80 nM biotin in trans; PDB11PEO8:DPhPC (1:1) hybrid bilayer; -75 mV sweeps protocol; 150 mM NaCl, 15 mM TrisHCl pH 7.5.
The target of test [3] is streptavidin (Streptomyces avidinii) (UniProt P22629). As to conditions: cited from earlier work.
Chain of streptavidin (Streptomyces avidinii) (P22629 25-183): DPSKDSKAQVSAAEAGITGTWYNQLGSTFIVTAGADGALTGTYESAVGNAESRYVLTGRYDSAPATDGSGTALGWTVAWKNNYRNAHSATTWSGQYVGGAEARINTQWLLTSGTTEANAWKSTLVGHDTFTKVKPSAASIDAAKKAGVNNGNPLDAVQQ

Chain of Streptavidin (P22629 25-183): as above

In test [1], “Streptavidin (from UniProt P22629 25-183) (natural protein)” yielded a dwell time of 5580 ms. In test [2], the negative logarithm of the Kd (pKd) was 7.64, the off-rate constant (koff) is 0.2 s⁻¹ and the on-rate (kon) was 8.77e+06 M⁻¹ s⁻¹.

With strepII-peptide, the negative-log Kd (pKd) in test [3] was 4.15.

The term pKd denotes the Kd on a negative log10 scale, so that one unit is a factor of ten. By koff is commonly meant the rate constant with which the complex falls apart. Broadly, the kon is the second-order rate constant of association.
